Experimental data: patent US5955575A, “Antagonists of G-protein-coupled receptor” (Hopital Sainte-Justine, priority 1997, dated 1999)
No end group written: not given here.

Key:
Type in all cases: cell-based
FP receptor [1] = target: T1, FP receptor (Homo sapiens, UniProt P43088); assay: Phosphoinositide hydrolysis in permeabilized A549 cells loaded with synthetic peptides, stimulated with PGF2α; conditions: dose-response in permeabilized A549 cells stimulated with PGF2α; FIG. 2B; read-out: half maximal inhibitory concentration
T1 construct: endogenous in cells; host or cells: A549 lung carcinoma cells (ATCC CCL185)

FP receptor [2] = target: T1, FP receptor; assay: Phosphoinositide hydrolysis in A549 cells stably expressing the peptides, stimulated with PGF2α; conditions: peptide stably expressed intracellularly in A549 cells; 1 μM PGF2α for 30 min; n=3; FIG. 1A
Protocol: (§1) A549 lung carcinoma cells (ATCC Accession No.: CCL185, American Type Culture Collection, Rockville, Md. 20852) were cultured in Dulbecco's modified Eagles medium (DMEM) with 10% fetal bovine serum (FBS) and antibiotics, penicillin (10 U/ml) and streptomycin (10 μg/ml) in a humidified atmosphere containing 5% CO2 at 37° C. The cells were trypsinized and plated in 6-well tissue culture dishes at 2×10^5 cells/well, a day before commencing the experiments.
(§2) The expression plasmids carrying the third (PCP-1) and the fourth (PCP-2) intracellular domains were introduced into A549 cells using Transfectamine lipid (GIBCO Life Technologies, Burlington, ON). Three (3) micrograms of DNA and 16 μg of lipid were mixed in 200 μl of water and incubated at room temperature for 45 min. Then, the lipid-DNA complexes were diluted with 0.8 ml of Opti-MEM™ (GIBCO Life Technologies, Burlington, ON). The cells were washed twice with Hank's Balanced Salt Solution and incubated with lipid-DNA complexes for 6 hours. An equal volume of DMEM with 20% FBS was added and the cells were kept in the incubator overnight. On the next day, the medium was replaced with DMEM containing 10% FBS and antibiotics and incubated for another 24 hours. […]

EP1 = target: T2, EP1 (Homo sapiens, UniProt P34995); assay: Phosphoinositide hydrolysis in A549 cells stably expressing the peptides, stimulated with PGE2 (specificity); conditions: peptide stably expressed intracellularly in A549 cells; 1 μM PGE2 for 30 min; FIG. 1B
T2 construct: a related prostaglandin receptor expressed in these cells; endogenous in cells; host or cells: A549 lung carcinoma cells (ATCC CCL185)
T2 sequence (P34995 1-402): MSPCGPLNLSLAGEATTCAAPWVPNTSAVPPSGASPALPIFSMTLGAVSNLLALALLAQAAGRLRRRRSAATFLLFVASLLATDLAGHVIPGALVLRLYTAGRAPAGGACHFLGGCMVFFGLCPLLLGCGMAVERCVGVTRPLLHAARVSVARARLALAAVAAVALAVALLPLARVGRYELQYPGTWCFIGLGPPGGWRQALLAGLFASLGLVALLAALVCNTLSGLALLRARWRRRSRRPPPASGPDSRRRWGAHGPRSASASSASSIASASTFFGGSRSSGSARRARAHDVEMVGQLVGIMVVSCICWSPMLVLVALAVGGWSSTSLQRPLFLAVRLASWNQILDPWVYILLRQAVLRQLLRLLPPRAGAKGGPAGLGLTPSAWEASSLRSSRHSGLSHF
Protocol: as §1, §2

T1 sequence (P43088 whole entry): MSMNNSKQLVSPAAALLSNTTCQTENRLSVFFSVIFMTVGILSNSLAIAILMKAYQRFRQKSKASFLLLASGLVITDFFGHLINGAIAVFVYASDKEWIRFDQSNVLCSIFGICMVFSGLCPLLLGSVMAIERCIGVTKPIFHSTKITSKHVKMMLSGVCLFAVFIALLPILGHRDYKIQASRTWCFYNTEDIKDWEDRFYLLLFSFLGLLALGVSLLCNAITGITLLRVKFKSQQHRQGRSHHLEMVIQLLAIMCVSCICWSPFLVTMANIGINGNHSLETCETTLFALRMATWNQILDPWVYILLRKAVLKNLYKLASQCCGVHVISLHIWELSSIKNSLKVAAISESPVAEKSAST

IC50 (FP receptor [1]) [µM]	ligand-stimulated phosphoinositide hydrolysis (fold stimulation over unstimulated controls) (FP receptor [2])	inositol phosphate generation by EP1 receptor (EP1)	Substance
50			KDTILQLNLKEYNLV-NH2 [PCP-4, KDTILQLNLK EYNLV-NH2]
	inhibited	did not affect	RKAVLKNLYKLASQCCGVHVISLHIWELSSIKNSLKVAAISESPVAEKSAST (RKAVLKNLYKLASQCCGVHVISLHIWELSSIKNSLKVAAISESPVAEKSAST) [PCP-2]
	inhibited	did not affect	RVKFKSQQHR QGRSHHLEM (RVKFKSQQHRQGRSHHLEM) [PCP-1]
